Assay results as given in patent US20230095167A1 (UNIVERSITEIT MAASTRICHT, published 2023).

Assays:
[1] = molecular target: T1, recombinant NT-proBMP10 (22-312) (human, UniProt O95393 22-312); test: SPR Biacore 8K, 37°C, mAb captured, BMP10(312) as analyte; ln(2)/60*kd
T1 construct: In-house construct; also called pro-peptide BMP10; BMP10(312)
T1 sequence: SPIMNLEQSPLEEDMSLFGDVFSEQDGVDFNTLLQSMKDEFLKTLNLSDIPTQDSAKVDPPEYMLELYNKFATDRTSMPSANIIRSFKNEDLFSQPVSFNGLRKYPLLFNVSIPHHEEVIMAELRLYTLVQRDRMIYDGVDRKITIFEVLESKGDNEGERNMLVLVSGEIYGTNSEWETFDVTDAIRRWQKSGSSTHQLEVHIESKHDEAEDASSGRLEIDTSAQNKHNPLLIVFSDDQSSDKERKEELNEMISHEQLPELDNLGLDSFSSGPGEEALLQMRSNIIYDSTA
Description: (§1) The association phase was monitored for 3 minutes; dissociation phase was monitored for 10 minutes. After each cycle of kinetics determination, the rabbit clones were eluted from the capture system by an injection of 10 mM Glycine pH 2.0 for 1 minute, followed by two consecutive injections of 10 mM Glycine pH 2.25 at 20 μL/min for 1 minute.
(§2) The dissociation rate constant kd was evaluated using a Langmuir 1:1 fit model according to the BIAcore™ evaluation software Insight SW V 2.0 from GE Healthcare. The antigen/antibody complex stability half-life time (minutes) was calculated according to the formula ln(2)/60*kd.

[2] = molecular target: T1, recombinant NT-proBMP10 (22-312); test: SPR Biacore 8K, 37°C, mAb captured by goat anti-rabbit Fc, BMP10(312) 3.7-300 nM as analyte; apparent, avidity-burdened
Description: as §1, §2

[3] = molecular target: T1, recombinant NT-proBMP10 (22-312); test: SPR Biacore 8K, 37°C, bound analyte per mAb

B1: MAB<BMP10>rRb-11A5 HC6/LC3.2 (p10se/p10sf)-IgG(SPA) (antibody, V domains shown)
VH: QSVEESGGRLVTPGTPLTLTCTASGFSLSSYAMSWVRQAPGKGLQFIGYISGGGSTYYASWVKGRFTISKTSTTVDLKLTSPTTEDTATYFCARGYPGYISGTWAVGQGTLVTVSS
VL: AVLTQTPSPVSAAVGGTVSISCQSSQSVVNNNRCSWFQQKPGQPPKQLIYSASTLASGVPSRFKGSGSGTQFTLTISDVQCDDAATYYCLGDYVSYGDSAFGGGTEVVVK
notes: Recombinant rabbit monoclonal IgG; also called clone 11A5; VH-2/VL-2
t/2 diss (complex half-life) [1]: 30 min | koff [2]: 0.00039 s⁻¹ | MR (Molar Ratio) [3]: 1.4

B2: MAB<BMP10>rRb-13G6 (p10tf/p10tg)-IgG(SPA) (antibody, V domains shown)
VH: QSLEESGGRLVTPGTPLTLTCTVSGFSLSNYAMSWVRQAPGMGLEYIGYISASGNTYYASWVKGRFTISKTSTTVDLKMTSPTTEDTATYFCARGYSGWISGTWAVGQGTLVTVSS
VL: AVLTQTPSPVSAAVGGTVNIGCQSSQSVVNNNRLSWFQQRPGQPPKQLIYRASTLASGVPSRFKGSGSGTQFTLTISDVQCDDAATYYCLGDYVSYSEAAFGGGTEVVVK
notes: Recombinant rabbit monoclonal IgG; also called clone 13G6; VH-4/VL-4
t/2 diss (complex half-life) [1]: > 115 min | koff [2]: < 0.0001 s⁻¹ | MR (Molar Ratio) [3]: 1.3

B3: MAB<BMP10>rRb-8G5 HC3/LC5 (p10qz/p10ra)-IgG(SPA) (antibody, V domains shown)
VH: QSLEESGGDLVKPGASLTLTCTASGFSFSSSYWICWVRQAPGKGLEWIACIYAGSSDITYYASWAKGRFTVSKTSSPTVTLQMTSLTAADTATYFCARGRYYVDGYADYYPGDFNLWGPGTLVTVSS
VL: DIVMTQTPASVEAAVGGTVTIKCQASQSISSYLAWYQQKSGQPPKLLIYLASTLESGVPSRFKGSGSGTEFTLTISDLECADAATYYCQSYYYSSSSSYGSAFGGGTEVVVK
notes: Recombinant rabbit monoclonal IgG; also called clone 8G5; VH-8/VL-8
t/2 diss (complex half-life) [1]: 6 min | koff [2]: 0.0021 s⁻¹ | MR (Molar Ratio) [3]: 1.2

B4: MAB<BMP10>rRb-9E7 HC12/LC7 (p10rw/p10rx)-IgG(SPA) (antibody, V domains shown)
VH: QSLEESGGGLVQPEGSLTLTCIASAFSFSSGYYMCWVRQAPGKGLEWIACIYAGSSGTTYYASWAKGRFTISKASSTTVTLLMTSLTAADTATYFCARGPGASGYRLGLWGPGTLVTVSS
VL: DVVMTQTPASVSEPVGGTVTIKCQASEDIYRLLAWYQQKPGQPPKLLIYDASDLASGVPSRLSGSGSGTEYTLSISDLECADAATYYCQQGYYISGGDSFGGGTEVVVK
notes: Recombinant rabbit monoclonal IgG; also called clone 9E7
t/2 diss (complex half-life) [1]: 21 min | koff [2]: 0.00054 s⁻¹ | MR (Molar Ratio) [3]: 1.4

B5: MAB<BMP10>rRb-2H8 HC7/LC6 (p10qv/p10qw)-IgG(SPA) (antibody, V domains shown)
VH: QSVEESGGRLVTPGTPLTLTCTASAFSLSRYVMSWVRQAPGKGLEFIGFINASGSTSYASWAKGRFTISKTSTTVDLKMTSLTTEDTATYFCATGNLWGPGTLVTVSS
VL: DIVMTQTPSSVSGPVGGTVTINCQASQNIYSNLAWYQQKPGQPPKLLIYYASTLVSGVPSRFKGSGSGTQFTLTISDLECANAATYYCQSKDGPTSSTYGAFGGGTEVVVR
notes: Recombinant rabbit monoclonal IgG; also called clone 2H8; VH-6/VL-6
t/2 diss (complex half-life) [1]: 38 min | koff [2]: 0.0003 s⁻¹ | MR (Molar Ratio) [3]: 1.2

B6: MAB<BMP10>rRb-14C8 HC2/LC3 (p10th/p10ti)-IgG(SPA) (antibody, V domains shown)
VH: QSVEESGGRLVTPGTPLTLTCTASGIDLSRYAMTWVRQAPGKGLEWIGIIGASSGTWYASWAKGRFTIAKTSTTVDLRITSPTTEDTATYFCARDNGDSKDYAFDPWGPGTLVTVSS
VL: IDMTQTPSPVSAAVGDTVTINCQASENIYSFLAWYQQKPGHSPNLLIYFASKLVSGVPSRFKGSGSGTQFTLTISDVQCDDAATYYCQQTYTYSNGDNPFGGGTEVVVK
notes: Recombinant rabbit monoclonal IgG; also called clone 14C8; VH-5/VL-5
t/2 diss (complex half-life) [1]: 10 min | koff [2]: 0.0012 s⁻¹ | MR (Molar Ratio) [3]: 1.3

B7: 11C10 (antibody, V domains shown)
VH: QSLEESGGRLVTPGTALTVTCTVSGIDLSRNLMSWVRQAPGEGLEWIGSINFRNITWYASWAKGRFTISKTSTTVDLRISSPTTEDTATYFCARGVYVNSNGYYSLWGQGTPVTVSS
VL: DIVMTQTPASVEAAVGGTVTINCQASQSVSNLLAWYQQKPGQPPKLLIYGASKLESGVPSRFKGSGSGTQFTLTINDLECDDAATYYCQTYWGGDGTSYLNPFGGGTEVVVK
notes: Rabbit monoclonal IgG; also called clone 11C10; VH-3/VL-3
t/2 diss (complex half-life) [1]: 26 min | koff [2]: 0.00045 s⁻¹ | MR (Molar Ratio) [3]: 1.3

B8: MAB<BMP10>rRb-3H8 HC3/LC3 (p10qx/p10qy)-IgG(SPA) (antibody, V domains shown)
VH: QSVEESGGRLVTPGTPLTLTCTASGFSLSKYDMSWVRQAPGKGLEWIGAIGGRGVTDYTTWAKGRFTISKTATTVDLKMTSPTTEDTATYFCVRALAGDTLWGPGTLVTVSS
VL: AQVLTQTASPVSAAVGSTVTINCQASQNIYKYNNLAWYQQKPGQPPKRLIYEASKLASGVPSRFSGSGSGTQFTLTISGVQCEDAATYYCQGTFECSSADCFGFGGGTEVVVK
notes: Recombinant rabbit monoclonal IgG; also called clone 3H8; VH-7/VL-7
t/2 diss (complex half-life) [1]: 15 min | koff [2]: 0.00078 s⁻¹ | MR (Molar Ratio) [3]: 1.3
